Measured values published in the Immune Epitope Database (IEDB).

Key:
HLA-A*01:01 [1] = experiment: IEDB peptide-MHC binding, purified MHC/competitive/fluorescence; ≥ and ≤ were set here for values at or beyond the usual limits of such assays
HLA-A*24:02 = experiment: as above; details: source organism: Zaire ebolavirus
HLA-C*03:03 = experiment: IEDB peptide-MHC binding, purified MHC/direct/fluorescence; filed as Kd, often an IC50 or EC50 that approximates it; ≥ and ≤ were set here for values at or beyond the usual limits of such assays
HLA-C*07:02 = experiment: as above; details: source organism: Mycobacterium tuberculosis variant bovis BCG str. Pasteur 1173P2
HLA-B*46:01 = experiment: IEDB peptide-MHC binding, purified MHC/competitive/fluorescence; filed as Kd, often an IC50 or EC50 that approximates it; ≥ and ≤ were set here for values at or beyond the usual limits of such assays; details: source organism: Mycobacterium tuberculosis variant bovis BCG str. Pasteur 1173P2
HLA-A*02:01 [2] = experiment: IEDB peptide-MHC binding, purified MHC/direct/fluorescence; filed as Kd, often an IC50 or EC50 that approximates it; ≥ and ≤ were set here for values at or beyond the usual limits of such assays
HLA-A*69:01 = experiment: as above
HLA-B*51:01 [3] = experiment: as above; details: source organism: Giardia lamblia ATCC 50803
HLA-C*05:01 = experiment: as above
HLA-B*15:42 = experiment: IEDB peptide-MHC binding, purified MHC/competitive/fluorescence; filed as Kd, often an IC50 or EC50 that approximates it; ≥ and ≤ were set here for values at or beyond the usual limits of such assays; details: source organism: Giardia lamblia ATCC 50803
HLA-B*45:06 = experiment: as above; details: source organism: Giardia lamblia ATCC 50803
HLA-B*83:01 = experiment: as above; details: source organism: Giardia lamblia ATCC 50803
HLA-A*01:01 [4] = experiment: IEDB peptide-MHC binding, purified MHC/direct/fluorescence; filed as Kd, often an IC50 or EC50 that approximates it; ≥ and ≤ were set here for values at or beyond the usual limits of such assays
HLA-A*11:01 [5] = experiment: as above
HLA-A*24:03 = experiment: as above
HLA-A*26:01 = experiment: as above
HLA-A*26:02 = experiment: as above; details: source organism: Variola virus
HLA-A*26:03 = experiment: as above; details: source organism: Variola virus
HLA-A*31:01 [6] = experiment: as above
HLA-A*68:02 [7] = experiment: as above; details: source organism: Camelpox virus M-96
HLA-B*08:02 = experiment: as above; details: source organism: Variola virus
HLA-B*15:01 [8] = experiment: as above
HLA-B*15:17 = experiment: as above
HLA-B*18:01 = experiment: as above; details: source organism: Camelpox virus M-96
HLA-B*57:01 = experiment: as above
HLA-B*58:01 = experiment: as above
HLA-B*07:02 [9] = experiment: IEDB peptide-MHC binding, purified MHC/competitive/fluorescence; filed as Kd, often an IC50 or EC50 that approximates it; ≥ and ≤ were set here for values at or beyond the usual limits of such assays; details: source organism: Variola virus
HLA-B*08:01 [10] = experiment: as above; details: source organism: Variola virus
HLA-A*02:12 = experiment: IEDB peptide-MHC binding, purified MHC/direct/fluorescence; filed as Kd, often an IC50 or EC50 that approximates it; ≥ and ≤ were set here for values at or beyond the usual limits of such assays
HLA-A*02:50 = experiment: IEDB peptide-MHC binding, purified MHC/competitive/fluorescence; filed as Kd, often an IC50 or EC50 that approximates it; ≥ and ≤ were set here for values at or beyond the usual limits of such assays
HLA-B*35:01 = experiment: as above; details: source organism: West Nile virus
HLA-B*51:01 [11] = experiment: as above
HLA-A*02:01 [12] = experiment: IEDB peptide-MHC binding, purified MHC/competitive/fluorescence; ≥ and ≤ were set here for values at or beyond the usual limits of such assays; details: source organism: Zaire ebolavirus
HLA-A*03:01 [13] = experiment: IEDB peptide-MHC binding, purified MHC/direct/fluorescence; filed as Kd, often an IC50 or EC50 that approximates it; ≥ and ≤ were set here for values at or beyond the usual limits of such assays; details: source organism: Salmonella enterica
HLA-B*07:02 [14] = experiment: as above; details: source organism: Salmonella enterica
HLA-B*08:01 [15] = experiment: as above; details: source organism: Salmonella enterica
HLA-B*27:05 = experiment: as above; details: source organism: Salmonella enterica
HLA-B*40:01 = experiment: as above; details: source organism: Salmonella enterica
HLA-B*44:02 = experiment: as above; details: source organism: Salmonella enterica
HLA-A*68:02 [16] = experiment: IEDB peptide-MHC binding, purified MHC/competitive/fluorescence; filed as Kd, often an IC50 or EC50 that approximates it; ≥ and ≤ were set here for values at or beyond the usual limits of such assays; details: source organism: Entamoeba histolytica HM-1:IMSS
HLA-A*03:01 [17] = experiment: IEDB peptide-MHC binding, purified MHC/competitive/fluorescence; ≥ and ≤ were set here for values at or beyond the usual limits of such assays; details: source organism: Vaccinia virus Copenhagen
HLA-A*11:01 [18] = experiment: as above; details: source organism: Vaccinia virus Copenhagen
HLA-B*15:01 [19] = experiment: as above; details: source organism: Vaccinia virus Copenhagen
HLA-A*31:01 [20] = experiment: IEDB peptide-MHC binding, purified MHC/competitive/radioactivity; filed as Kd, often an IC50 or EC50 that approximates it; ≥ and ≤ were set here for values at or beyond the usual limits of such assays; details: source organism: Vaccinia virus WR
HLA-A*33:01 = experiment: as above; details: source organism: Vaccinia virus WR
HLA-A*68:01 = experiment: as above; details: source organism: Vaccinia virus WR
[21] = source organism: Zaire ebolavirus
[22] = source organism: Marburg virus - Musoke, Kenya, 1980
[23] = source organism: Giardia lamblia ATCC 50803
[24] = source organism: Camelpox virus M-96
[25] = source organism: Vibrio vulnificus
[26] = source organism: Vibrio vulnificus CMCP6
[27] = source organism: West Nile virus
[28] = source organism: Salmonella enterica
[29] = source organism: Salmonella enterica subsp. enterica serovar Typhimurium
[30] = source organism: Mammarenavirus juninense
[31] = source organism: Vaccinia virus
[32] = source organism: Burkholderia mallei
[33] = source organism: Burkholderia mallei ATCC 23344

Q: Which results are given for EIDTTIGEW?
A: IC50 (HLA-A*01:01 [1]; [21]): ≥ 494000 nM; IC50 (HLA-A*24:02): ≥ 81700 nM

Q: For FLLDGGAPF, which Kd (HLA-C*03:03; source organism: Mycobacterium tuberculosis variant bovis BCG str. Pasteur 1173P2) is on record?
A: ≤ 1 nM

Q: What about the Kd (HLA-C*07:02) of the same sequence?
A: 527 nM

Q: What about the Kd (HLA-B*46:01) of the same sequence?
A: 21.2 nM

Q: For FLLDYEGTL, which Kd (HLA-A*02:01 [2]; [22]) is on record?
A: 6 nM

Q: And the Kd (HLA-A*69:01; [22])?
A: 437 nM

Q: What about the Kd (HLA-C*03:03; source organism: Orthomarburgvirus marburgense) of the same sequence?
A: ≤ 1 nM

Q: For FPMIIGSEL, which Kd (HLA-B*51:01 [3]) is on record?
A: 2130 nM

Q: And the Kd (HLA-C*05:01; [23])?
A: ≥ 20000 nM

Q: What about the Kd (HLA-B*15:42) of the same sequence?
A: ≥ 5000 nM

Q: And the Kd (HLA-B*45:06)?
A: ≥ 5000 nM

Q: And the Kd (HLA-B*83:01)?
A: 156 nM

Q: IFLIITKVF was tested. Which Kd (HLA-A*01:01 [4]; [24]) did it give?
A: ≥ 20000 nM

Q: And the Kd (HLA-A*02:01 [2]; [24])?
A: ≥ 20000 nM

Q: What about the Kd (HLA-A*11:01 [5]; [24]) of the same sequence?
A: ≥ 20000 nM

Q: And the Kd (HLA-A*24:03; [24])?
A: 1100 nM

Q: And the Kd (HLA-A*26:01; source organism: Variola virus)?
A: ≥ 20000 nM

Q: And the Kd (HLA-A*26:02)?
A: ≥ 20000 nM

Q: And the Kd (HLA-A*26:03)?
A: ≥ 20000 nM

Q: And the Kd (HLA-A*31:01 [6]; [24])?
A: ≥ 20000 nM

Q: What about the Kd (HLA-A*68:02 [7]) of the same sequence?
A: ≥ 20000 nM

Q: What about the Kd (HLA-A*69:01; [24]) of the same sequence?
A: ≥ 20000 nM

Q: And the Kd (HLA-B*08:02)?
A: ≥ 20000 nM

Q: And the Kd (HLA-B*15:01 [8]; [24])?
A: ≥ 20000 nM

Q: And the Kd (HLA-B*15:17; [24])?
A: ≥ 20000 nM

Q: And the Kd (HLA-B*18:01)?
A: ≥ 20000 nM

Q: And the Kd (HLA-B*57:01; [24])?
A: ≥ 20000 nM

Q: And the Kd (HLA-B*58:01; [24])?
A: ≥ 20000 nM

Q: What about the Kd (HLA-B*07:02 [9]) of the same sequence?
A: 3000 nM

Q: What about the Kd (HLA-B*08:01 [10]) of the same sequence?
A: ≥ 20000 nM

Q: With KIDDMIEEV as the sequence, how does the Kd (HLA-C*05:01; source organism: Vaccinia virus WR) read?
A: 124 nM

Q: For KLTSYSAGL, which Kd (HLA-A*02:01 [2]; [25]) is on record?
A: 21 nM

Q: What about the Kd (HLA-A*02:12; [26]) of the same sequence?
A: 7 nM

Q: And the Kd (HLA-A*69:01; [25])?
A: 15100 nM

Q: What about the Kd (HLA-A*02:50; [26]) of the same sequence?
A: ≤ 0.1 nM

Q: With LAVSAYTPW as the sequence, how does the Kd (HLA-B*15:17; [27]) read?
A: 5 nM

Q: What about the Kd (HLA-B*57:01; [27]) of the same sequence?
A: 86 nM

Q: And the Kd (HLA-C*03:03; [27])?
A: ≤ 1 nM

Q: What about the Kd (HLA-B*35:01) of the same sequence?
A: 5.7 nM

Q: And the Kd (HLA-B*51:01 [11]; [27])?
A: ≥ 20000 nM

Q: For LFEVDNLTY, which IC50 (HLA-A*01:01 [1]; [21]) is on record?
A: 69100 nM

Q: What about the IC50 (HLA-A*02:01 [12]) of the same sequence?
A: ≥ 210000 nM

Q: What about the IC50 (HLA-A*24:02) of the same sequence?
A: 66500 nM

Q: LLQGVPFHV was tested. Which Kd (HLA-A*01:01 [4]; [28]) did it give?
A: ≥ 20000 nM

Q: What about the Kd (HLA-A*02:01 [2]; [29]) of the same sequence?
A: 109 nM

Q: And the Kd (HLA-A*03:01 [13])?
A: ≥ 20000 nM

Q: What about the Kd (HLA-A*11:01 [5]; [28]) of the same sequence?
A: ≥ 20000 nM

Q: What about the Kd (HLA-A*24:03; [28]) of the same sequence?
A: ≥ 20000 nM

Q: And the Kd (HLA-A*26:01; [28])?
A: ≥ 20000 nM

Q: And the Kd (HLA-A*31:01 [6]; [29])?
A: 1810 nM

Q: And the Kd (HLA-A*69:01; [29])?
A: 289 nM

Q: What about the Kd (HLA-B*07:02 [14]) of the same sequence?
A: ≥ 20000 nM

Q: And the Kd (HLA-B*08:01 [15])?
A: ≥ 20000 nM

Q: What about the Kd (HLA-B*15:01 [8]; [28]) of the same sequence?
A: ≥ 20000 nM

Q: What about the Kd (HLA-B*27:05) of the same sequence?
A: ≥ 20000 nM

Q: What about the Kd (HLA-B*40:01) of the same sequence?
A: ≥ 20000 nM

Q: And the Kd (HLA-B*44:02)?
A: ≥ 20000 nM

Q: And the Kd (HLA-B*58:01; [28])?
A: ≥ 20000 nM

Q: What about the Kd (HLA-A*02:50; source organism: Salmonella enterica subsp. enterica serovar Paratyphi B str. SPB7) of the same sequence?
A: ≤ 0.1 nM

Q: What does the source list for MPVSIPTPI?
A: Kd (HLA-C*05:01; [23]): ≥ 20000 nM; Kd (HLA-B*51:01 [11]; [23]): 340 nM

Q: With MVPKSFTYS as the sequence, how does the Kd (HLA-A*68:02 [16]) read?
A: 76.2 nM

Q: Which Kd (HLA-B*58:01; [30]) does the source give for RATQPAAEF here?
A: 12.9 nM

Q: And the Kd (HLA-C*05:01; [30])?
A: 1740 nM

Q: With TLNHNCINV as the sequence, how does the Kd (HLA-A*02:01 [2]; source organism: Cowpox virus) read?
A: 404 nM

Q: And the Kd (HLA-A*02:12; [31])?
A: 19 nM

Q: What about the Kd (HLA-A*69:01; source organism: Cowpox virus) of the same sequence?
A: 136 nM

Q: And the Kd (HLA-A*02:50; [31])?
A: 0.2 nM

Q: What does the source list for VTAASPMLY?
A: IC50 (HLA-A*01:01 [1]; source organism: Vaccinia virus Copenhagen): 1290 nM; IC50 (HLA-A*03:01 [17]): 10500 nM; IC50 (HLA-A*11:01 [18]): 1170 nM; IC50 (HLA-B*15:01 [19]): 4450 nM; Kd (HLA-A*31:01 [20]): ≥ 77900 nM; Kd (HLA-A*33:01): 14500 nM; Kd (HLA-A*68:01): 861 nM

Q: For YLACKQHAL, which Kd (HLA-A*02:01 [2]; [32]) is on record?
A: 62.5 nM

Q: And the Kd (HLA-A*69:01; [32])?
A: 292 nM

Q: What about the Kd (HLA-C*03:03; [33]) of the same sequence?
A: 24 nM

Q: And the Kd (HLA-A*02:50; [33])?
A: ≤ 0.1 nM
